The values that follow come from publication PMC9352346.

For the test, the target named is GST-Smad4-linker-MH2. The experiment in a line: GST pull-down, immunoblot band quantification. The settings on record: HEK293T cell lysate; n=3; read off a plot. In general terms: In western blotting, separated proteins are transferred to a membrane and probed.

Substance Arl15-WT-GFP A86L gave an other: relative amount of Arl15-AL-GFP pulled down of 1.1.
